Substitutions are numbered along the chain they refer to. Like-named read-outs stand apart in the source and are kept apart here. Each block holds one binder with its values, some of them ahead of it.
Columns and labels:
human MICA004 on cells [1] = molecular target: T1, human MICA004 on cells (human); assay: flow cytometry, CHO-MICA004 cells
T1 construct: whole, on cells; also called CHO-MICA004; C1R-MICA004

human MICB005 on cells [2] = molecular target: T2, human MICB005 on cells (human); assay: flow cytometry on CHO-MICB005 cells; column Control_1w (control of the 1-week experiment)
T2 construct: whole, on cells; also called CHO-MICB005; C1R-MICB005
Protocol: (§1) The plate was centrifuged, and cells were washed with PBS three times. […] After incubation for 30 minutes at room temperature, cells were washed with PBS twice. Signals of APC were determined by flow cytometry (Attune™ CytPix™, ThermoFisher) within the population of live cells (viability dye PI negative).
(§2) The EC50 values were calculated based on non-linear fitting curves by GraphPad Prism software.

MICB005-ECD-HISAvi [3] = molecular target: T3, MICB005-ECD-HISAvi (human, UniProt Q29980 24-309); assay: SPR (Carterra); antibody captured by anti-human Fc, monomeric ECD antigen injected
T3 construct: Two sources under one name in the two kinetic assays; also called MICB005 polypeptide
T3 sequence: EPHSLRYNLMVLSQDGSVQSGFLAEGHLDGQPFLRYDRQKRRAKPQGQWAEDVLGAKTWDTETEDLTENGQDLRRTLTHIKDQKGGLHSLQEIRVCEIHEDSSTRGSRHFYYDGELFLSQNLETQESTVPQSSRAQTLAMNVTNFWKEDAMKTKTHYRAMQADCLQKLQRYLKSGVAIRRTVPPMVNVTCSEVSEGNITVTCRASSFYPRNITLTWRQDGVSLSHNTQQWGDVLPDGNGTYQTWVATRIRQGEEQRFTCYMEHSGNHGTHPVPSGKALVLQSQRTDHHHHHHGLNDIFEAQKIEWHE
Protocol: (§3) The dissociation kinetics were monitored for approximately 10 minutes. The chip surface was regenerated between binding cycles with 10 mM glycine HCl, pH 1.7. Binding kinetics were analyzed using software supplied by the manufacturer.

MICA002-ECD-HISAvi [4] = molecular target: T4, MICA002-ECD-HISAvi (human, UniProt Q29983 24-308); assay: as above
T4 construct: also called MICA002 polypeptide
T4 chain: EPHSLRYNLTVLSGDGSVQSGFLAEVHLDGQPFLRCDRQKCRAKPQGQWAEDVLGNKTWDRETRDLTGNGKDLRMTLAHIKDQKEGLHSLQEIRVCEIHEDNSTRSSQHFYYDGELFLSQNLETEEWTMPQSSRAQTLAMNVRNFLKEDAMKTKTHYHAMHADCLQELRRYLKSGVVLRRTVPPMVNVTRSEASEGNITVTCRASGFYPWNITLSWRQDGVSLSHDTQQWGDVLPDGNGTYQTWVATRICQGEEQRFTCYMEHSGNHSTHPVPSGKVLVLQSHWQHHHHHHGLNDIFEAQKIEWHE
Protocol: as §3

human MICA002 on cells = molecular target: T5, human MICA002 on cells (human); assay: flow cytometry, CHO-MICA002 cells
T5 chain: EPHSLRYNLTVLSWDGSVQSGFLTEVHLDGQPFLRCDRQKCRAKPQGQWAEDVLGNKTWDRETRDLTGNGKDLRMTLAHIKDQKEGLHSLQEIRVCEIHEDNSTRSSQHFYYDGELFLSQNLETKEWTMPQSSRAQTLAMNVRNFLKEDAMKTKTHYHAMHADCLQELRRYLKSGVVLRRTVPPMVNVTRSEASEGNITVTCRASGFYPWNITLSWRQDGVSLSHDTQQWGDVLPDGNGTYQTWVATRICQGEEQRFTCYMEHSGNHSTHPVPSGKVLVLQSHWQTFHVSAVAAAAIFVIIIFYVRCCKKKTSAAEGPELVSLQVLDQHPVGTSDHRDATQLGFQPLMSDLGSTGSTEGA

human MICA004 on cells [5] = molecular target: T1, human MICA004 on cells; assay: flow cytometry, CHO-MICA004 cells; remark: listed apart in the source
human MICB005 on cells [6] = molecular target: T2, human MICB005 on cells; assay: flow cytometry, CHO-MICB005 cells
human MICA008 on cells [7] = molecular target: T6, human MICA008 on cells (human); assay: flow cytometry, CHO-MICA008 cells
T6 construct: whole, on cells; also called CHO-MICA008; C1R-MICA008

human MICB005 on cells [8] = molecular target: T2, human MICB005 on cells; assay: flow cytometry on CHO-MICB005 cells; column Control_2w (control of the 2-week experiment)
Protocol: as §1, §2

MICB005-ECD-HISAvi [9] = molecular target: T3, MICB005-ECD-HISAvi; assay: SPR (Carterra); antibody captured by anti-human Fc, monomeric ECD antigen injected; remark: listed apart in the source
Protocol: as §3

MICA004-ECD-HISAvi = molecular target: T7, MICA004-ECD-HISAvi (human); assay: as above
T7 construct: also called MICA004 polypeptide
T7 chain: T4 chain with G14W, C36Y, L122V, M129V, K173E, G175S, T181R, G206S, W210R, S215T
Protocol: as §3

MICA002-ECD-HISAvi [10] = molecular target: T4, MICA002-ECD-HISAvi; assay: as above
Protocol: as §3

MICA008-ECD-HISAvi = molecular target: T8, MICA008-ECD-HISAvi (human); assay: as above
T8 construct: Two sources under one name in the two kinetic assays; also called MICA008 polypeptide
T8 chain: T4 chain with G14W, C36Y, M129V, K173E, G206S, W210R, T213I, S215T, Q251R
Protocol: as §3

human MICA008 on cells [11] = molecular target: T6, human MICA008 on cells; assay: flow cytometry, CHO-MICA008 cells; remark: listed apart in the source
Protocol: (§4) IgG1 is an isotype control (IgG). The antibody binding signals of APC (gMFI) to MICA/B were measured by flow cytometry.
(§5) After an incubation time of 30 minutes, the plate was centrifuged and cells were washed with PBS three times. […] After mixing for 30 minutes at room temperature, cells were washed with PBS twice. Fluorescent signal was detected and quantified by flow cytometry (Attune™ CytPix™, ThermoFisher) within the population of live cells (viability dye PI negative).

human MICA008 on cells [12] = molecular target: T6, human MICA008 on cells; assay: flow cytometry, HeLa cells (MICA008)
human MICB005 on cells [13] = molecular target: T2, human MICB005 on cells; assay: flow cytometry, CHO-MICB005 cells; remark: listed apart in the source
Protocol: as §4, §5

T6 sequence (Q29983 whole entry): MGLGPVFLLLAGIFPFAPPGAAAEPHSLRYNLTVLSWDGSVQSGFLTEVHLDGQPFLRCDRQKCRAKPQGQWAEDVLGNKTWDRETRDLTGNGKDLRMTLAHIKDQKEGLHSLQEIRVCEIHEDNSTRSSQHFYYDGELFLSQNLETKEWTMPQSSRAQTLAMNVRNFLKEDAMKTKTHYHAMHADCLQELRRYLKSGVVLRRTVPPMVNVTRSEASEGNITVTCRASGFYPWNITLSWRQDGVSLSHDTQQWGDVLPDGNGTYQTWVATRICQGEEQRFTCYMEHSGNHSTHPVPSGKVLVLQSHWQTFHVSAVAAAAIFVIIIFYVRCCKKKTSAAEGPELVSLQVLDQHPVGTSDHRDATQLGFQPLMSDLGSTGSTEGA
T1 sequence (Q29983 whole entry): as above

EC50 (human MICA004 on cells [1]): 0.193 µg/mL
EC50 (human MICB005 on cells [2]): 0.237 µg/mL
Kd (MICB005-ECD-HISAvi [3]): 0.96 nM
Kd (MICA002-ECD-HISAvi [4]): 0.032 nM
EC50 (human MICA002 on cells): 0.301 µg/mL
EC50 (human MICA004 on cells [5]): 0.051 µg/mL
EC50 (human MICB005 on cells [6]): 0.142 µg/mL
EC50 (human MICA008 on cells [7]): 0.04 µg/mL
EC50 (human MICB005 on cells [8]): 0.264 µg/mL
Kd (MICB005-ECD-HISAvi [9]): 2.3 nM
Kd (MICA004-ECD-HISAvi): 1.35 nM
Kd (MICA002-ECD-HISAvi [10]): 0.47 nM
Kd (MICA008-ECD-HISAvi): 1.79 nM
EC50 (human MICA008 on cells [11]): 0.028 µg/mL
EC50 (human MICA008 on cells [12]): 0.133 µg/mL
EC50 (human MICB005 on cells [13]): 0.152 µg/mL
B1: 1D5 (antibody, human IgG1, kappa, V domains shown)
VH: EIQLQQSGPELVKPGASVKVSCKASGYAFTSQNIYWVKQSHGKSLEWIGYIEPYNVVPMYNPKFKGKATLTVDKSSSSAYIHLNSLTSEDSAIYYCARSGSSNFDYWGQGTTLTVSS
VL: EIILTQSPTTMAASPGEKITITCSASSSISSHYLHWYQQKSGFSPKLLIYRTSNLASGVPARFSGSGSGTSYSLTIGTMEAEDVATYYCQQGSSLPLTFGAGTKVEIKR
notes: also called ID5

EC50 (human MICA004 on cells [1]): 0.89 µg/mL
EC50 (human MICB005 on cells [2]): 0.836 µg/mL
Kd (MICB005-ECD-HISAvi [3]): 5.47 nM
Kd (MICA002-ECD-HISAvi [4]): 1.65 nM
EC50 (human MICA002 on cells): 0.857 µg/mL
EC50 (human MICB005 on cells [8]): 0.956 µg/mL
Kd (MICB005-ECD-HISAvi [9]): 9.29 nM
Kd (MICA004-ECD-HISAvi): 4.05 nM
Kd (MICA002-ECD-HISAvi [10]): 5.67 nM
Kd (MICA008-ECD-HISAvi): 2.82 nM
EC50 (human MICA008 on cells [11]): 0.119 µg/mL
EC50 (human MICA008 on cells [12]): 0.651 µg/mL
EC50 (human MICB005 on cells [13]): 0.572 µg/mL
B2: 3F9 (antibody, human IgG1, kappa, V domains shown)
VH: QVQLVESGGGLVKPGGSLRLSCAASGFTFSNYAMSWIRQAPGKGLEWVSYISPGGDYIYYADSVKGRFTISRDNAKNSLYLQMNSLRAEDTAVYYCTTDRRHYGSYAMDYWGQGTLVTVSS
VL: DIVMTQSPLSLPVTPGEPASISCRSSKSLLHSNLNTYLYWFLQKPGQSPQILIYRMSNLASGVPDRFSGSGSGTAFTLKISRVEAEDVGVYYCMQHLEYPFTFGPGTKLEIKR
notes: also called benchmark 3F9
